tested on: K4 kissing-loop RNA reporter; assay: apparent KD of K4 kissing-loop reporter; higher = weaker reporter binding; settings: Eterna round: R107; input ligand: FMN 200 uM
Protocol: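 RNA-MaP round R107: designed RNA switches with theophylline, tryptophan, arginine or FMN aptamers are transcribed on-chip within common flanks. They are titrated with a labelled K4 kissing-loop RNA reporter in RNA-MaP buffer (100 mM Tris pH 7.5, 80 mM KCl, 4 mM MgCl2), without ligand or with the indicated ligand. Median apparent KD per design.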
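Note: bound reporter read as fluorescence of individual clusters on recovered sequencing chips by microscopy, with normalized cluster intensities fitted with a binding model.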

Sequence	apparent KD of K4 kissing-loop reporter
UUAUCUAUAUUCGAUACCAGUACCCUGUGUGUUGAUCCUUUUAUAAGUGAUGUUUAUGAGUACCCUUGGCAGCGGGUAUGGGUUU [KL-XTheo-B17]	815 nM
GGGAGUAGUGCGGCCGCCACUGAGAAAGAAGAAGAAUAUAGUGAUGUUAUAUAGGAAGGGAAGAACAGGACCGGGCAUUAGAUUU [SSTRyptB.Y]	240 nM
UGUGAACAAAAGUAGAGUGGACCACUAUAGCGAGGACCGGUACGGCCGCCACUCGUGUAUGAAUUCAGUGAUGUUGAAAAGAGCU [whbob_EX_Tryp_A_t11]	131 nM
CAUACGCAUGGAGGAUAUGAGAUUACUCAUAUCAUUUAAUAUUCUCAGUGAUGUUGAGAUUUAAACUCAGAAGGCCAUGUGUAUG [Ex FMN B 12]	262 nM
AAACAUCACUGGGAGUGAUGUUCUCAGUGACGAGGACCGGUACGGCCGCCACUCGCGAGAGAUAUAAAUGAGUAAUGACAUCAUU [Excl Tryptophan A V2]	276 nM
UACUGGGCGAGUGAUGUUCGCUCACGUGAUACCAGUGCCAUCCAACACCCUUGGCAGCACGCGGGCAGUGAUGUUGUCCUUGUAU [Exclusion Theophylline A GF 5]	127 nM
GCCGUAGAUUGAAGGAGCGUUCUUCAGCAAACUUGCAGUGAUGUUGCAUUAAACAUGUAAGAACAGGUAGGUCGCAAUCUACGGC	145 nM
CUAACGGUACGAGUGAUGUUCAGCAAGGAUACCAGCGGACAGUCACGCCCUUGGCAGCCUAGUUUCUACCCGUCGGAAUUUCUUA [theeternabot_sameState_KL_Theo_A_2]	623 nM
UUUGUAUAGGGAAGGAGCGUGAAUGAUAAUGAAUAUAGUGAUGUUAUAUAGAAGAAAGAAUCACAGGUAGGUCGCCCGGAGGAGG [SSArgB.I]	198 nM
GGGCGCGGCGCGGCCGCCACUGGGCCUGGGCGCGCGCCGAGUGAUGUUCGCCUGCGGCUGGGUCGUAGGACCGGGUGCCGGCUGG [BDazzled 1]	422 nM
AAUGUACAGGGAAGGAGCGUAGUCCAGUGAUGUUGGAAUUAAAUUCCUGCGAUGUUGGUUAUACAGGUAGGUCGCCCUAAAGUGC [KL-XARG-B22]	367 nM
CCCGGGUCGUCAGGAUAUGAGUGCAGUGAUGUUGCACGGGUCUUUGCAGGCCCUGGUGAGGCGUACUCAGAAGGGACGCCAGGUC [Atazazaed]	250 nM
UAAGAAUAAGUAGCAGUGAUGUUGCUACUGCGAGGACCGGUACGGCCGCCACUCGAGUCCUCGAAGCAUCACUGAACGAGGAAUA [whbob_SS_Tryp_A_m12]	272 nM
GCCUAGCAGGGAAGGAGCGCCAUAUAAUUAAAAGUUAAUUAAUGAGUGAUGUUCAAAUAAUGGCAGGUAGGUCGCCCUGCUAGGC [KL-SSArg B9]	378 nM
AAGUAGCUCUCGGCCGCCACUCCUCAGUGAUGUUGAGAUAUUAAGAGCCAAUUGGCUCAUAUAAAGAGGACCGGGAGAGCUACAA [AK4 SS Tryptophan B]	248 nM
AGACUACCACACUGUCAAUAGACAGUGGACUAGGAUAUGCUGAUAAGCAGAAGGAGUGAUGUUCCAAGGUAGUCAAUAAAAUAAU [FmnAX 13 G28+A66]	294 nM
GCCUUAUAUCGAGCUACAGCUCGAUUUGGUCGAGGACCGGUACGGCCGCCACUCGAAUGAUAGUGAUGUUAUCAUUAUGGCCUAA [JR_ExcTryptoA_Sub022]	185 nM
AUUAGGCGAAGUGAUGUUUCAUAUAAUGGCAAGGAUAUGUCCUUACACAGAAGGUGCUCUUAGUCAGGUUAUAUUAGGACUGCUA [theeternabot_exclusion_KL_FMN_A_42]	446 nM
GCCGUAGAUUGAAGGAGCGGGAUAGAGAAAGUGAUGUUUUCUCUUUGACGGCGUCCUCGAUCCCAGGUAGGUCGCAAUCUACGGC	76.1 nM
AUAAACUUGCAGUGAUGUUGCAAGUGAGACUAGGAUAUCAGGAAGCUGAGAAGGAGUCAUCUCCUUCAGACAUCACUAUGAAGGA [whbob_SS_FMNA__2th179]	334 nM
AAGCAGUCACUCGAACCCAUCGAAGAUGGUCGAGGACCGGUACGGCCGCCACUCGGAGUGAUGUUCCGCAGACUGCAAAAUAAAA	376 nM
ACCUAGUACGUAGGAUAUCGAACAUCAUUUAGUGAGAUCGAGUGAUGUUCGAUCACGUCUUCAGUUCGAGAAGGACGUACUAGGA [FMN B SS t4]	335 nM

Sequence	apparent KD of K4 kissing-loop reporter
UCCUGCAAUCGUCCACGAAAGUGGAUUGAUACCAGAGUCGAAAGACUCCCUUGGCAGCGAGUGAUGUUCGAAGCAGGUAAAUAAA	432 nM
GCCAGUGAUGUUGGCAUUUCGAGCCAUGAAGGAGCGCACGGAAGUGCAGGUAGGUCGCAUGGUACUUAAGAUAUUAUCCUAAGUA [Atceis]	210 nM
CGCAGUGAUGUUGCGAGUAGCUACAGGGAAGGAGCGUGCUAGAGCACAGGUAGGUCGCCCAGUGGCAGUGAUGUUGCCAAAGGGU [Exclusion ARginine A GF 17]	126 nM
AACGCAAGUUGUCUGGUAGACAUUUCAGAUACCAGACAUAGUGAUGUCCCUUGGCAGCUGAACAUCCAGUGAUGUUGGAUACGUU [Theo A SS t11a]	444 nM
GGUGCUGUCUGUGCCGCCCUCCUCGUUCCUCGAGGACCGGUACGGCCGCCACUCGAGUGAUGUUUGGGUAGCGAUCCCUGCUAGC [Bdazzled - #16 Exc. Tryptophan A]	792 nM
UAUAUAGUGAUGUUAUAUAUACAUUCGGAAGGAGCGUGGUAAAACACAGGUAGGUCGCUGAAAUAAUUAAAAUAAUUUUCUUUUU [AstrosSSArgA#1]	255 nM
UACAAUUUGGCGGCCGCCACUGACCAUAGCCUUCGAUGGCCAGUGAUGUUGGCCUCUGGCUCUAACAGGACCGGGCCAAAUUAUG [Maeste]	313 nM
AACCGUGUGGCGGCCGCCACUAGUCUCCAGUGAUGUUGGAGAGAUCACGUAAGUGAUCUCCGACAUAGGACCGGGCCAUAUGGAA [Same State - Tryptophan B (Freestyle 24)]	509 nM
GGCCGGAAGGCGAGCGCUCCCACUCCGGAAGGAGCGCCCGCAAGGGCAGGUAGGUCGCCGGAGUGAUGUUCCGGUGGAGGGCUCG [#2 Exclusion - Arginine A Attempt #20 (Inspired by Omei)]	185 nM
GGAUAGGACAUAGGAUAUGGGCUAGGCAAGAAUAACUUGUCUAGCAAAUCCAUGAGGAGUGAUGUUCCAGAAGGGUGUCCUAUCG [FmnBX 1 U11+G75]	194 nM
GCAGUGAUGUUGCGGAUGUACAGUGGGAUACGAGGACCGGUACGGCCGCCACUCGUACAGAACAAGCUAAUACAUCGAUAGGUGA [XII]	265 nM
GCAGUGAUGUUGCGGAUGUACAGUGGCGUGCGAGGACCGGUACGGCCGCCACUCGUACAGCACAAGCUAAUACAUCGAUAGGUGA [whbob_SS_Tryp_A_m2]	566 nM
UGCGCUGUGUACUGAAAUGUUAUGCGGGAUACCAGAGUCUUUUUAUUCCCUUGGCAGCUUGAGUGAUGUUUGAUGCCGUUCUUGU [po,,mmullin]	490 nM
GUCUCGAGUGAUGUUCGGGUCGAUUGGGAAGGAGCGCCCGGAAGGGCAGGUAGGUCGCCCGGACCGCGCGGGCAACCGCGCGGCC [#2 Same State - Arginine A Attempt #11 (HarryS)]	186 nM
GCCAUCAGGUCGCAAGACCUGAUAGCCGAUACCAGCGCGAAGGUGCGCCCUUGGCAGCGGCACCGAGUGAUGUUCGGUCAGGCGG [#2 Same State - Theophylline A Attempt #3 (HarryS)]	490 nM
CUUAAGGAGUGUCGUGCCGGACACUGGGAAGGAGCGCAAUUCUUUGCAGGUAGGUCGCCCAGUGAUGUUGGGUGGCGCUGUCGAA [Laatonbi]	190 nM
GCGAACAUUCGCAGUGAUGUUGCGACGGAAGGAGCGCGUGAAAACGCAGGUAGGUCGCCGACAAAAUUAAUUUUAAUGUGUUCGC [Arginine A K4 27]	373 nM
UGUGUUGUUGUGAUGUUUAGUGUUGUUGGGCAGGAUAUCGUAGAGGCGAGAAGGGCUUGUGUGCUGUAUGAGUGAUGUUUGUAGG [xrrxmullin]	372 nM
AGAACUGUCUGAGAUACCAGCCAUAGGAGUGAUGUUCCUAGCUCCACAAAGUGGAGCCAUGGCCCUUGGCAGCUCAGACAGUUCA [Omei KL Theo B SS A v8]	219 nM
AAAAUAAACCAGUGAUGUUGGUGUCCAGAUACCAGCGACAAAAGUCGCCCUUGGCAGCUGUGGACGUACAAAAUAAGUACGUCCU [MatMod 1 - Jieux - Same State - Theophylline A]	390 nM
AGGUCCGAGCCCGUAAGGGCUCGGACCUGUUAGGAUAUGACGUUAUUCAGAAGGGAUGGGUGGAGUGAUGUUCCACCCGCAAGGG [#2 Same State - FMN A Attempt #10 (HarryS)]	98.8 nM

same assay, conditions: Eterna round: R107; input ligand: arginine 13.2 mM

Sequence	apparent KD of K4 kissing-loop reporter
UUAUCUAUAUUCGAUACCAGUACCCUGUGUGUUGAUCCUUUUAUAAGUGAUGUUUAUGAGUACCCUUGGCAGCGGGUAUGGGUUU [KL-XTheo-B17]	734 nM
GGGAGUAGUGCGGCCGCCACUGAGAAAGAAGAAGAAUAUAGUGAUGUUAUAUAGGAAGGGAAGAACAGGACCGGGCAUUAGAUUU [SSTRyptB.Y]	306 nM
UGUGAACAAAAGUAGAGUGGACCACUAUAGCGAGGACCGGUACGGCCGCCACUCGUGUAUGAAUUCAGUGAUGUUGAAAAGAGCU [whbob_EX_Tryp_A_t11]	187 nM
CAUACGCAUGGAGGAUAUGAGAUUACUCAUAUCAUUUAAUAUUCUCAGUGAUGUUGAGAUUUAAACUCAGAAGGCCAUGUGUAUG [Ex FMN B 12]	331 nM
AAACAUCACUGGGAGUGAUGUUCUCAGUGACGAGGACCGGUACGGCCGCCACUCGCGAGAGAUAUAAAUGAGUAAUGACAUCAUU [Excl Tryptophan A V2]	236 nM
UACUGGGCGAGUGAUGUUCGCUCACGUGAUACCAGUGCCAUCCAACACCCUUGGCAGCACGCGGGCAGUGAUGUUGUCCUUGUAU [Exclusion Theophylline A GF 5]	112 nM
GCCGUAGAUUGAAGGAGCGUUCUUCAGCAAACUUGCAGUGAUGUUGCAUUAAACAUGUAAGAACAGGUAGGUCGCAAUCUACGGC	138 nM
CUAACGGUACGAGUGAUGUUCAGCAAGGAUACCAGCGGACAGUCACGCCCUUGGCAGCCUAGUUUCUACCCGUCGGAAUUUCUUA [theeternabot_sameState_KL_Theo_A_2]	366 nM
UUUGUAUAGGGAAGGAGCGUGAAUGAUAAUGAAUAUAGUGAUGUUAUAUAGAAGAAAGAAUCACAGGUAGGUCGCCCGGAGGAGG [SSArgB.I]	234 nM
GGGCGCGGCGCGGCCGCCACUGGGCCUGGGCGCGCGCCGAGUGAUGUUCGCCUGCGGCUGGGUCGUAGGACCGGGUGCCGGCUGG [BDazzled 1]	202 nM

Reference: the supplement of paper PMC9170038
